In the supplement of paper PMC9112550, “Optimization of the antimicrobial peptide Bac7 by deep mutational scanning” (BMC Biology, 2022):

Test system: Escherichia coli TOP10
Test: shrunken log2 fold change of peptide-encoding DNA abundance (4.5 h post-induction vs induction); higher = less antimicrobial activity (less host growth inhibition)
Details: time post-induction: 4.5 h; library: site-saturation at positions 5, 18, 19, 20
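Also: peptides expressed intracellularly from a pBAD plasmid library in pooled LB shake-flask culture, induced with 0.3% L-arabinose, DNA abundance read by NGS, three biological replicates, DESeq2 with apeglm shrinkage.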

Sequence | shrunken log2 fold change
RRIRVRPPRLPRPRPRPPKNPRP | 0.192
RRIRFRPPRLPRPRPRPTICPRP | -0.288
RRIRMRPPRLPRPRPRPELHPRP | 0.397
RRIRRRPPRLPRPRPRPPNRPRP | 0.4
RRIRERPPRLPRPRPRPHIFPRP | 0.116
RRIRQRPPRLPRPRPRPIKMPRP | -0.39
RRIRERPPRLPRPRPRPLEIPRP | 0.0282
RRIRKRPPRLPRPRPRPFAYPRP | 0.0165
RRIRGRPPRLPRPRPRPALCPRP | 0.925
RRIRWRPPRLPRPRPRPWFYPRP | -0.705
RRIRKRPPRLPRPRPRPDQMPRP | -0.0646
RRIRSRPPRLPRPRPRPKQGPRP | 0.245
RRIRSRPPRLPRPRPRPPDRPRP | 0.643
RRIRQRPPRLPRPRPRPERYPRP | -0.0565
RRIRLRPPRLPRPRPRPYSTPRP | -1.09
RRIRRRPPRLPRPRPRPKIWPRP | 0.227
RRIRRRPPRLPRPRPRPPMGPRP | 0.554
RRIRFRPPRLPRPRPRPGQFPRP | -0.148
RRIRTRPPRLPRPRPRPVSDPRP | -0.114
RRIRTRPPRLPRPRPRPRRMPRP | 0.15
RRIRVRPPRLPRPRPRPWYHPRP | -0.209
RRIRIRPPRLPRPRPRPRWYPRP | -0.452
RRIRPRPPRLPRPRPRPFMWPRP | -0.168
RRIRARPPRLPRPRPRPKDEPRP | 0.687
RRIRWRPPRLPRPRPRPPNRPRP | 0.148

Sequence | shrunken log2 fold change
RRIRPRPPRLPRPRPRPDKCPRP | -0.432
RRIRNRPPRLPRPRPRPAQMPRP | 0.177
RRIRTRPPRLPRPRPRPITMPRP | -0.595
RRIRVRPPRLPRPRPRPQFRPRP | -1.21
RRIRPRPPRLPRPRPRPIWCPRP | 0.0267
RRIRVRPPRLPRPRPRPERWPRP | 0.615
RRIRVRPPRLPRPRPRPLWHPRP | -0.0301
RRIRCRPPRLPRPRPRPGFMPRP | -0.429
RRIRKRPPRLPRPRPRPAGFPRP | 0.0388
RRIRFRPPRLPRPRPRPDWIPRP | -0.114
RRIRNRPPRLPRPRPRPFILPRP | -0.634
RRIRTRPPRLPRPRPRPANKPRP | -0.216
RRIRVRPPRLPRPRPRPLWAPRP | 0.081
RRIRSRPPRLPRPRPRPMWSPRP | 0.284
RRIRIRPPRLPRPRPRPLIHPRP | -0.556
RRIRYRPPRLPRPRPRPNHWPRP | -0.4
RRIRARPPRLPRPRPRPFNDPRP | -0.147
RRIRNRPPRLPRPRPRPKSAPRP | 0.265
RRIRWRPPRLPRPRPRPHLRPRP | 0.039
RRIRLRPPRLPRPRPRPECFPRP | 0.226
RRIRMRPPRLPRPRPRPVCMPRP | 0.392
RRIRVRPPRLPRPRPRPMYRPRP | 0.0262
RRIRHRPPRLPRPRPRPKLNPRP | -0.248
RRIRPRPPRLPRPRPRPIFFPRP | 0.211
RRIRGRPPRLPRPRPRPHFPPRP | 0.0246

Sequence | shrunken log2 fold change
RRIRIRPPRLPRPRPRPKCMPRP | -0.229
RRIRMRPPRLPRPRPRPWAYPRP | -0.012
RRIRRRPPRLPRPRPRPKMQPRP | 0.336
RRIRPRPPRLPRPRPRPGPAPRP | 0.51
RRIRARPPRLPRPRPRPSFLPRP | -0.338
RRIRFRPPRLPRPRPRPAPSPRP | 0.607
RRIRDRPPRLPRPRPRPEISPRP | 0.134
RRIRNRPPRLPRPRPRPGWGPRP | 0.492
RRIRQRPPRLPRPRPRPVFWPRP | 0.113
RRIRKRPPRLPRPRPRPYHHPRP | -0.247
RRIRVRPPRLPRPRPRPIWVPRP | 0.154
RRIRNRPPRLPRPRPRPGLKPRP | 0.265
RRIRTRPPRLPRPRPRPLGLPRP | 0.207
RRIRGRPPRLPRPRPRPLLPPRP | 0.895
RRIRMRPPRLPRPRPRPVFSPRP | 0.314
RRIRMRPPRLPRPRPRPGVNPRP | -0.0818
RRIRHRPPRLPRPRPRPRPEPRP | -0.165
RRIRARPPRLPRPRPRPHIMPRP | -0.277
RRIRYRPPRLPRPRPRPIKIPRP | -0.105
RRIRSRPPRLPRPRPRPEMGPRP | 0.128
RRIRARPPRLPRPRPRPSMYPRP | 0.0294
RRIRHRPPRLPRPRPRPVMYPRP | -1.29
RRIRWRPPRLPRPRPRPTILPRP | 0.0395
RRIRPRPPRLPRPRPRPLKDPRP | -0.115
RRIRHRPPRLPRPRPRPWIQPRP | -0.0803
